Laboratory results: the nanobody polyreactivity screen of Harvey et al. (2022)

Assay: yeast display, Sf9 membrane polyspecificity reagent, FACS + sequencing; frameworks hold sequencing errors
In short: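 After 36–48 hours of galactose induction, yeast (Saccharomyces cerevisiae BJ5465) displaying a synthetic nanobody library were stained at 4 °C for 1 hour with 10% biotinylated, detergent-solubilized Sf9 membrane reagent. Streptavidin microbeads enriched the stained cells before FACS sorting into low and high (top ~1%) gates on anti-HA and streptavidin fluorescence. Each clone's polyreactivity label reflects its gate of origin.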

Sequence	polyreactivity (PSR sort gate)
QVQLVESGGGLVQAGGSLRLSSAASGSTFAYYAMGWYRQEPAKEGELVASISWRGGSTYYADSVKGRFTISRDNAKNTVYLQMNSLKPEDTAVYYCAARSTYRPWLLSAYGYWGQGTQVTVSS	low polyreactivity
QVQLVESGGGLVQAGGSLRLSSAASGSTFGYYAMGWYRQPPGKERELVAAISSSAGTTYYADSVKGCFTISRDNAKNTVYLQMNSLKPEDTAVYYCAADAVSGREYWGQGTQVTVST	low polyreactivity
QVQLVESGGGLVQAGGSLRLSSAASGSTFLYVMGWYRQAPGKERELVAAISESGGSTYYADSVKGRFTISRDNAKNTVYLQMNSLKPEDTAVYYCAADLPTGLQYRYYRVDYWGHGTQVTVSS	low polyreactivity
QVQLVESGGGLVQAGGSLRLSSAASGSTFPYVKGWYRQAPGKESEFVAAISQRTGSTYYADSVKGRFTISRDNAKNTVYLQMNSLKPEDTAVYYCAKPGYLRPSRYDYWGQGTQVTVSS	high polyreactivity
QVQLVESGGGLVQAGGSLRLSSAASGSTFQDYDMRRSRQAPGKERELVAVISGSGGCTYYADSVKGRFTISRDNAKNTVYLQMNSLKPEDTAVYYCATDIKDGRPGDGVYDYGYWGQGTQVTVSS	low polyreactivity
QVQLVESGGGLVQAGGSLRLSSAASGSTFTPYVMGWYRQAPGKERELVAAISKRGGSTYYADSVKGRFTISRDNANNTVYLQMNSLKPEDTAVYYCAAVQPAWGNGYWGQGTQVTVSS	high polyreactivity
QVQLVESGGGLVQAGGSLRLSSAASGSTFVQNAIGWYRQAPGKERELVAAISRTGGSTYSAHSVKGRFTIYRDNAKNTVYLEMNSLKPEDTAVYYFAKRPPHYSWPTFIEFGSWGLGTQVTVSS	high polyreactivity
QVQLVESGGGLVQAGGSLRLSSAASGSTIRFNAMGWYRQAPGKERELVAVIRWRGGTTYYADSVKGRFTISRDNAKNTVYLQINSLKPEDSAVYYCNADYWFSYTWHGSYTVGYWGQGTQVTVSS	high polyreactivity
QVQLVESGGGLVQAGGSLRLSSAATGSIFLSNMGWYRQAPGKERELVAAIYRNGGSTYYADSVKGRFTISRDNAKNTVYLQMNSLKPEDTAVYYCAVQRYWGQGTQVTVSS	high polyreactivity
QVQLVESGGGLVQAGGSLRLSSAATGSIIGFYAMGWYRQAPGKERELVAAITRGGGSTFYADSVKGRFTISRDNAKNTVYLQINSLKPEDTAVYYCAATVYRYHGPGYYYWGQGTQVTVSS	high polyreactivity
QVQLVESGGGLVQAGGSLRLSSAGSGRIFGYYAMGGYRQAPGTETELVAAISSNGGSTYYADSVKGRFTISRDNANNTVYLQMNSLQPEDTAVYYCKVYFYSRHYFYRGDYWGQGTQVTVSS	high polyreactivity
QVQLVESGGGLVQAGGSLRLSSAPSGRIFDHYAMGWYRQAHGKERELGAAITRSGGITYYADSVKGRFTISRDNAKNTVYLQMNSLKPEDTAVYYCAALSYRYTDKFDYWGQGTQVTVSS	low polyreactivity
QVQLVESGGGLVQAGGSLRLSSAPSGSTYYVYDMGWYRQAPGKERELVAAITSGGSTNNADSVKGRFTISRDNAKNTVYLEMKSLKPVDTAVYYCAAQGRVWDSYGYEYVQEVTRDYWGQGTQVNVSS	low polyreactivity
QVQLVESGGGLVQAGGSLRLSSDASGFIIANNALGWYRQAPVKERELVAAISRSGGRTYYADSVKGRFTISRDNGKKTVYLQMNSLKTEDTAVYYCVADRTDTSNYWGQGTQVTVSS	high polyreactivity
QVQLVESGGGLVQAGGSLRLSWAASGFGWYAMGWYRQAPGKEREFVAAISRGGGSTYYADSVKGRFTISRDNAKNTVYLQMNSLKPEDTAVYYCAAVYYRRISQGDTQTYYQYNYWGQGTQVTVSS	high polyreactivity
QVQLVESGGGLVQAGGSLRLSWAASGHTFHGYDMGWYRQEPGKERDLVAAITSTGGSTHYSDSVKGRFTISRDNAKNTVYLQMNSLKPEDTAVFFCANRSYGLTRAYSAGNFWGQGTQVTVSS	low polyreactivity
QVQLVESGGGLVQAGGSLRLSWAASGITFYGNAMGWYRAAPGKEREFVAAISTRDGTTYADSVKGRFTISRDNAKNTVYLQRNSLKPEDTAVYYCAAAYYYDGQQGDFAYWGQGTQVTVSS	low polyreactivity
QVQLVESGGGLVQAGGSLRLSWAASGNTFNNNPMGWYRQAPGKERELVAAISGSGGSTYYADSVKGRFTISRDNAKNTVYLQLNSLKPEDTAGYYCAVRLVHGGKRYVYWGQGTQVTVSS	high polyreactivity
QVQLVESGGGLVQAGGSLRLSWAASGPTCGQLAMVWYRQAPGKERELVAAISYSGARTYYADSVKGRFTISRDNAKNTVDLQMNSLIPQDTAVKYCNAYSAYVNGNRRGLGYWGQGTHVTVSS	high polyreactivity
QVQLVESGGGLVQAGGSLRLSWAASGSSFFRNAMGGYSQAPGKERELVASISRSGGSTYYADSVKGRFTISRDNAKNTVYLQMNSLKPEDTAVSYCAKKPNTQTSYWYYYWGQGTQVTVST	high polyreactivity
QVQLVESGGGLVQAGGSLRLSWAASGSTFIGYAMGWYRQAPGKERELVAAISWSGGLTYYADSVKGRFTFSRDNAKNTVYLQMNSLKPEDTAVYYCNTVPYGISVQFNYWGQGTQVTVSS	high polyreactivity
QVQLVESGGGLVQAGGSLRLSWAASGSTFQSYAMGLSRQAPGKERELVAAISFSGGSTYYADSVKGRFTISRDNAKNTVYLQMHSLKPEDTAVYYCAADVAYVEYDYWGQGTQVTVSS	low polyreactivity

Sequence	polyreactivity (PSR sort gate)
QVQLVESGGGLVQAGGSLRLSWAASGSTFRNYAMGWYRQAPGKEREFVAAISRSGGSTYYADSVKGRFTISRDNANNPVYLQMISLKPEETAVYYCNKESFWGPDNYWGQGTQETVSS	high polyreactivity
QVQLVESGGGLVQAGGSLRLSWAAYGRNFRPNTMGWYRQAPGKEREMVAAISRSGGSTYYADSVKARFTISRDNAKNTVYLQMNSLKPEDTAVYYCAKRYGGIVGVGAYKYEYWGQGTQVTVSS	high polyreactivity
QVQLVESGGGLVQAGGSLRLSWATSGFILLDNALGWYRQAPGKESEFVASINISGDRTFYADSVKGRFTISRDNAKNTVYLQMNSLKAEDTAVYYCAKEPGWGRRSTTAYDYWGQGTQVTVSS	low polyreactivity
QVQLVESGGGLVQAGGSLRLTCAASGFIFAYYVMGWYRQAPGKERELVAAITSSDGITYYADSVKGRFTISRDNAKNTVYLQMNSLKPEDTAVYYCNADVYPDVGWRESDYWGQGTQVTVSS	low polyreactivity
QVQLVESGGGLVQAGGSLRLTCAASGFIFGANTRGWYRQAPGKERELVATISWSGGSTYYADSVKGRFTISRDNAKMTVYLQMNSLKPEVTAVYYCAAPGVTYGFRSVYWGQGTQVTVSS	low polyreactivity
QVQLVESGGGLVQAGGSLRLTCAASGFIFPLYTMGWYRQAPGKERELVAAITGSGGSTYYADSVKGRFTISRDNAKNTVYLQMNSLKPEDTAVYYCAKDYTYGMDWGQGTQVTVSS	low polyreactivity
QVQLVESGGGLVQAGGSLRLTCAASGFIFRYYAMGWYRPATGKEMELVAAISRGGSTNYADSVKGRFTISRDNAKYTVYLQMNSLKPEDTAVYYCASRKGRSKQGYYYWGQGTQVTVSS	high polyreactivity
QVQLVESGGGLVQAGGSLRLTCAASGFIFRYYAMGWYRQAPGKERELVAAISRSGGSTYYADSVKGRFTISRDNAKNTVYLQMNSLKPEDTAVYYCAAKDGRSYYDRTPMDYWGQGTQVTVSS	low polyreactivity
QVQLVESGGGLVQAGGSLRLTCAASGFIIKFYDMGWYRQAPGKERELVATITFSSGTTYYADSVKGRFTISRDNAKNTVYLQMNSLKPEDTAVYYCAAYTLPAWPYDGPAGPRYDYWGQGTQVTVSS	low polyreactivity
QVQLVESGGGLVQAGGSLRLTCAASGFILSSNAMGWYRQAPGKERELVAAITRSGGSTYYADSVKGRFTISRDNAKNTVYLEMNSLKPEDTAVYYCNRLYYSGSGASLDYWGQGTQVTVSS	high polyreactivity
QVQLVESGGGLVQAGGSLRLTCAASGFIYPYYAMGWYRQATGKERELVATNTRSGGSTYYADSVKGRFTISLDNAKNNVYLQMNSVKQEDSAVYSCAADIYWYRGYGFWGQGTQVTVSS	high polyreactivity
QVQLVESGGGLVQAGGSLRLTCAASGFTFGTYAMGWYRQAPGKERELVAAITWSGGSTYYADSVKGRFTISRDNAKNTVYLQMNSLKPEDTAVYYCAAESADYNDGDYWGQGTQVTVSS	low polyreactivity
QVQLVESGGGLVQAGGSLRLTCAASGGTFQPNAMGGYRQAPGKERELVAAISWSDGSTYYADSVKGRFTISRDNAKNTVYLQMKSLKPVDTAVYYCAADFTYYDSPYRDYNYESWGQGTQVTVSS	low polyreactivity
QVQLVESGGGLVQAGGSLRLTCAASGGTIFPNAMGWYRQAPGKEMELVATITSSDTTNYADSVKGRFTISRDNAMNTVYLQMNSLKTEDTAVYYCDASFKLRYWDYYYWGQGTQVTVSS	low polyreactivity
QVQLVESGGGLVQAGGSLRLTCAASGGTLDYNAMGWYRQAPGKERELVAPISAGADGTYYADSVKGRFTISRDNAKNTVYLQMNSLKPEDSAVYYCAARPKNNWARTNFGIRYNDWGQGTQVTVSS	high polyreactivity
QVQLVESGGGLVQAGGSLRLTCAASGIIFDKNAMGWYRQAPGKERELVAVITRGGSTYYADSVKGRFTISRDNAKNTVYLQMNSLKPEDTAVYYCAARYTPGFGYWGQGTQVTVSS	high polyreactivity
QVQLVESGGGLVQAGGSLRLTCAASGIIFSGYAMGWYRQAPGTERELVASIRSGSNTYYADSVKGRITISRDNAKYTVYFQMNSLKPEDTGVYYCAADIEYSYFQVFSYNYEYWGQGSQVTVSS	low polyreactivity
QVQLVESGGGLVQAGGSLRLTCAASGIILVAYPMGWYRQAPGKERELVAAITTSGTSTYYADSVKGRFTISRDNAKNTGYVQMNSLKPEDTAVYYCAVRQRYGPARYDYWGQGTQVTVSS	high polyreactivity
QVQLVESGGGLVQAGGSLRLTCAASGIIYYVYAMVWYRQAPGKERELVAAITSGGTTYYADSVKGRFTISRDNAKNTVYLQMNSLKPEDTAVYYCAAARGGGRTYGYWGQGTQVTVSS	high polyreactivity
QVQLVESGGGLVQAGGSLRLTCAASGITFCIYVMGWYRQAPGKEREVVATISRSDDNTYYADSVKGRFTISRDNAKNTVYLQMYCLKPEDTAVYYCAADGVISAWYSSRDDYWGQGTQVTVSS	low polyreactivity
QVQLVESGGGLVQAGGSLRLTCAASGITFDLNAKGWYRQAPGKERELVAAIFRGGSTYYADSVKGRFTISRDNAKNTVYLQMNSLKPEDTAVYYCAAAYYRVGRAYPHEAYDYWGQGTQVTVSS	low polyreactivity
